Data from the supplement of paper PMC10567573.

B1: MATN2 (parent)
chain: TDDSYSCHCLKGFTLNPDKKTCRR
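Further: lentivirally expressed fusions sorted by FACS into six bins by GFP to DsRed ratio, PSI derived from sequencing read proportions per bin multiplied by bin number.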

Variants of: B1
Assay: protein stability index of a GFP-peptide fusion (GPS, HEK-293T) (PSI 1-6); higher = more stable
Settings: c terminus: a fixed tail appended
In the case of TDDSYSCHCLKGNTLNPDKKTCRR, the protein stability index is reported as 1.81. For TDDSYSCHCLKGITLNPDKKTCRR, the protein stability index was 2.05. For TDDSYSCHCLKGCTLNPDKKTCRR, the protein stability index was 2.39. TDDSYSCHCLKGETLNPDKKTCRR gave a protein stability index of 2.45. Work on TDDSYSCHCLKGGTLNPDKKTCRR yielded a protein stability index of 2.88. In the case of TDDSYSCHCLKGYTLNPDKKTCRR, the protein stability index is reported as 3.04. For TDDSYSCHCLKGATLNPDKKTCRR, the protein stability index was 2.88. TDDSYSCHCLKGPTLNPDKKTCRR showed a protein stability index of 2.74. Work on TDDSYSCHCLKGRTLNPDKKTCRR yielded a protein stability index of 2.14. Variant TDDSYSCHCLKGMTLNPDKKTCRR has a protein stability index of 2.71. Variant TDDSYSCHCLKGQTLNPDKKTCRR has a protein stability index of 2.02. Variant TDDSYSCHCLKGVTLNPDKKTCRR has a protein stability index of 2.21. With TDDSYSCHCLKGTTLNPDKKTCRR the protein stability index was 2.3. For TDDSYSCHCLKGLTLNPDKKTCRR, the protein stability index was 2.77. Work on TDDSYSCHCLKGHTLNPDKKTCRR yielded a protein stability index of 1.98. TDDSYSCHCLKGKTLNPDKKTCRR showed a protein stability index of 2.55. With TDDSYSCHCLKGSTLNPDKKTCRR the protein stability index was 2.21. For TDDSYSCHCLKGWTLNPDKKTCRR, the protein stability index was 2.44. With TDDSYSCHCLKGDTLNPDKKTCRR the protein stability index was 2.27. With TDDSYSCHCLKGFTLNPWKKTCRR the protein stability index was 2.17. For TDDSYSCHCLKGFTLNPAKKTCRR, the protein stability index was 2.11. TDDSYSCHCLKGFTLNPVKKTCRR showed a protein stability index of 2.42. For TDDSYSCHCLKGFTLNPQKKTCRR, the protein stability index was 1.97. For TDDSYSCHCLKGFTLNPEKKTCRR, the protein stability index was 1.77. With TDDSYSCHCLKGFTLNPTKKTCRR the protein stability index was 2.24. TDDSYSCHCLKGFTLNPHKKTCRR gave a protein stability index of 2.83. Work on TDDSYSCHCLKGFTLNPMKKTCRR yielded a protein stability index of 2.48. TDDSYSCHCLKGFTLNPPKKTCRR showed a protein stability index of 2.61. For TDDSYSCHCLKGFTLNPIKKTCRR, the protein stability index was 2.62. TDDSYSCHCLKGFTLNPNKKTCRR gave a protein stability index of 2.38. TDDSYSCHCLKGFTLNPCKKTCRR gave a protein stability index of 2.57. TDDSYSCHCLKGFTLNPKKKTCRR gave a protein stability index of 2.86. TDDSYSCHCLKGFTLNPLKKTCRR showed a protein stability index of 2.23. TDDSYSCHCLKGFTLNPSKKTCRR gave a protein stability index of 2.27. TDDSYSCHCLKGFTLNPFKKTCRR showed a protein stability index of 2.01. For TDDSYSCHCLKGFTLNPYKKTCRR, the protein stability index was 1.95. Work on TDDSYSCHCLKGFTLNPGKKTCRR yielded a protein stability index of 2.36. With TDDSYSCHCLKGFTLNPRKKTCRR the protein stability index was 2.65. Work on TDDSYSCHCLKGFTLNPDKKFCRR yielded a protein stability index of 1.57. With TDDSYSCHCLKGFTLNPDKKWCRR the protein stability index was 1.83. TDDSYSCHCLKGFTLNPDKKVCRR showed a protein stability index of 2.41. TDDSYSCHCLKGFTLNPDKKGCRR showed a protein stability index of 1.33. Work on TDDSYSCHCLKGFTLNPDKKQCRR yielded a protein stability index of 2.64. In the case of TDDSYSCHCLKGFTLNPDKKECRR, the protein stability index is reported as 2.89. TDDSYSCHCLKGFTLNPDKKICRR showed a protein stability index of 2.4. TDDSYSCHCLKGFTLNPDKKKCRR showed a protein stability index of 2.06. With TDDSYSCHCLKGFTLNPDKKMCRR the protein stability index was 2.57. For TDDSYSCHCLKGFTLNPDKKHCRR, the protein stability index was 2.62. For TDDSYSCHCLKGFTLNPDKKPCRR, the protein stability index was 2.36. With TDDSYSCHCLKGFTLNPDKKACRR the protein stability index was 2.2. In the case of TDDSYSCHCLKGFTLNPDKKCCRR, the protein stability index is reported as 2.75. Variant TDDSYSCHCLKGFTLNPDKKDCRR has a protein stability index of 2.6. Variant TDDSYSCHCLKGFTLNPDKKSCRR has a protein stability index of 2.36. TDDSYSCHCLKGFTLNPDKKRCRR showed a protein stability index of 2.34. Variant TDDSYSCHCLKGFTLNPDKKYCRR has a protein stability index of 2.27. In the case of TDDSYSCHCLKGFTLNPDKKNCRR, the protein stability index is reported as 2.32. Work on TDDSYSCHCLKGFTLNPDKKLCRR yielded a protein stability index of 2.15. TDDSYSCHCLKGFTQNPDKKTCRR gave a protein stability index of 2.8. Work on TDDSYSCHCLKGFTYNPDKKTCRR yielded a protein stability index of 2.45. TDDSYSCHCLKGFTNNPDKKTCRR gave a protein stability index of 2.03. TDDSYSCHCLKGFTINPDKKTCRR gave a protein stability index of 2.12. In the case of TDDSYSCHCLKGFTPNPDKKTCRR, the protein stability index is reported as 2.42. TDDSYSCHCLKGFTKNPDKKTCRR showed a protein stability index of 2.64. Variant TDDSYSCHCLKGFTWNPDKKTCRR has a protein stability index of 2.48. TDDSYSCHCLKGFTCNPDKKTCRR gave a protein stability index of 2.9. For TDDSYSCHCLKGFTVNPDKKTCRR, the protein stability index was 2.55. For TDDSYSCHCLKGFTTNPDKKTCRR, the protein stability index was 2.02. Work on TDDSYSCHCLKGFTHNPDKKTCRR yielded a protein stability index of 1.97. In the case of TDDSYSCHCLKGFTANPDKKTCRR, the protein stability index is reported as 2.45. In the case of TDDSYSCHCLKGFTENPDKKTCRR, the protein stability index is reported as 2.58. Work on TDDSYSCHCLKGFTDNPDKKTCRR yielded a protein stability index of 2.14. In the case of TDDSYSCHCLKGFTMNPDKKTCRR, the protein stability index is reported as 2.38. TDDSYSCHCLKGFTGNPDKKTCRR showed a protein stability index of 1.74. Work on TDDSYSCHCLKGFTRNPDKKTCRR yielded a protein stability index of 2.81. TDDSYSCHCLKGFTFNPDKKTCRR showed a protein stability index of 2.86. In the case of TDDSYSCHCLKGFTSNPDKKTCRR, the protein stability index is reported as 2.17. With TDDSYSCHCLKGFTLNPDKHTCRR the protein stability index was 2.17. With TDDSYSCHCLKGFTLNPDKSTCRR the protein stability index was 2.33. Work on TDDSYSCHCLKGFTLNPDKDTCRR yielded a protein stability index of 2.29. TDDSYSCHCLKGFTLNPDKMTCRR gave a protein stability index of 1.78. With TDDSYSCHCLKGFTLNPDKLTCRR the protein stability index was 1.32. With TDDSYSCHCLKGFTLNPDKVTCRR the protein stability index was 1.77. For TDDSYSCHCLKGFTLNPDKGTCRR, the protein stability index was 2.09. With TDDSYSCHCLKGFTLNPDKRTCRR the protein stability index was 2.03. For TDDSYSCHCLKGFTLNPDKWTCRR, the protein stability index was 1.48. Work on TDDSYSCHCLKGFTLNPDKFTCRR yielded a protein stability index of 1.85. Variant TDDSYSCHCLKGFTLNPDKCTCRR has a protein stability index of 4.55. TDDSYSCHCLKGFTLNPDKYTCRR gave a protein stability index of 1.53. With TDDSYSCHCLKGFTLNPDKQTCRR the protein stability index was 2.95. TDDSYSCHCLKGFTLNPDKTTCRR showed a protein stability index of 1.6. In the case of TDDSYSCHCLKGFTLNPDKNTCRR, the protein stability index is reported as 2.04. In the case of TDDSYSCHCLKGFTLNPDKETCRR, the protein stability index is reported as 2.06. For TDDSYSCHCLKGFTLNPDKATCRR, the protein stability index was 2.68. For TDDSYSCHCLKGFTLNPDKITCRR, the protein stability index was 2.1.
